Source: patent US20240034785A1, “RXR-ALPHA BINDERS AND RXR-ALPHA/PLK1 MODULATORS” (NUCMITO PHARMACEUTICALS CO. LTD., priority 2020, published 2024)

Molecular target: T1, polo-like kinase 1 (PLK1), full-length (human, UniProt P53350 1-603)
T1 construct: Endogenous, FLAG-tagged and His-tagged forms are merged here; also called FLAG-PLK1; Flag-PLK1
Test: CoIP of FLAG-PLK1 with Myc-RXRα mutants in HeLa cells (FIG. 27)

T1 sequence (P53350 whole entry): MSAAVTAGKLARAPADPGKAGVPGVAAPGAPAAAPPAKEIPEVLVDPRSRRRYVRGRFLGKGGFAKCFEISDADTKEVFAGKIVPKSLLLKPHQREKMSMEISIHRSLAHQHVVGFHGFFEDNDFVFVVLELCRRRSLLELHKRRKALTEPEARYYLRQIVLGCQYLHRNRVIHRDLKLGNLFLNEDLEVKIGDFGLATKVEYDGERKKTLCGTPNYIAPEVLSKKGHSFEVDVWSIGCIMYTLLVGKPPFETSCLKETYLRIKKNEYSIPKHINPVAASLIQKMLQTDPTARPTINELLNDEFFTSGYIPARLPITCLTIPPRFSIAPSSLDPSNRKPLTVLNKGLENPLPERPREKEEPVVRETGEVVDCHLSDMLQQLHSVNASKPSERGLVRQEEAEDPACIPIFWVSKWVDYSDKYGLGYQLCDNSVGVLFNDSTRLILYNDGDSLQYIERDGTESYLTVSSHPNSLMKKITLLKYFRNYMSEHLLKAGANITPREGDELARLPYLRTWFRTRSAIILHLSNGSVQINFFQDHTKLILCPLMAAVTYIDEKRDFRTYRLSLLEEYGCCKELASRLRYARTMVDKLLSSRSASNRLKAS

binding result: no binding
B1: RXRα-S56A/S70A (RXRα-2A) (receptor)
chain: MDTKHFLPLDFSTQVNSSLTSPTGRGSMAAPSLHPSLGPGIGSPGQLHSPISTLSAPINGMGPPFSVISAPMGPHSMSVPTTPTLGFSTGSPQLSSPMNPVSSSEDIKPPLGLNGVLKVPAHPSGNMASFTKHICAICGDRSSGKHYGVYSCEGCKGFFKRTVRKDLTYTCRDNKDCLIDKRQRNRCQYCRYQKCLAMGMKREAVQEERQRGKDRNENEVESTSSANEDMPVERILEAELAVEPKTETYVEANMGLNPSSPNDPVTNICQAADKQLFTLVEWAKRIPHFSELPLDDQVILLRAGWNELLIASFSHRSIAVKDGILLATGLHVHRNSAHSAGVGAIFDRVLTELVSKMRDMQMDKTELGCLRAIVLFNPDSKGLSNPAEVEALREKVYASLEAYCKHKYPEQPGRFAKLLLRLPALRSIGLKCLEHLFFFKLIGDTPIDTFLMEMLEAPHQMT
notes: Myc-tagged (CoIP) and GST-fused (kinase assay) forms are merged; also called RXR-S56A/S70A(2A); GST-RXRα-2A
